The nature of this series: label from the status in PepcDB records.
As to “MTFLQRWQGLADNKICAFAWFVIRRFSEERVPQAAASMTFTTLLALVPVLTVMVAVASIFPVFDRWSDSFVSFVNQTIVPQGADMVFDYIDAFRDQANRLTAIGSVMLVVTSLMLIRTIDNAFNRIWRVNTQRPWMMQFLVYWALLTFGPLSLGVGISFMVGSVQDSVLSSGAQQWADALKTAARLAFMTLLLWGLYRFVPNRFVPARQAFVGALITAFCLETARFLFTWYMGNFDGYRSIYGAFAAVPFFLLWLNLLWTLVLGGAVLTSSLSYWQGEAFRRGFDSRGRFDDVLKILLLLDAAQKEGRTLSVQEFRRHINMGYDELGELLEKLARYGYIYSGRQGWVLKTGADSIELSELFKLFVYRPLPVERDHVNQAVDAVMTPCLQTLNMTLAEFDAQAKKQQQS”, the protein production result was “failed”.

In the case of “MTFTSSFHYQALPMRVSFEVGAVTKIGEELDRLGLSRALVLCTPEQKHLADLVMDHLGDRGAGIFDQARMHVPVETADRARDRARKLGADSCVVIGGGSSIGLGKAIALEHGLPIIAIPTTYAGSEMTPIWGLTRDGRKQTGRDAKVLPQSVIYDPQLTATLPAEISAASGLNAVAHAVEALYAPDASPIISLMAEEGVRAFAESLPAVVADGNDLDARSKALYGAWLCGACLGATTMSLHHKLCHVLGGSLDLPHAQTHAIVLPHVLGYNESHAPAARAALQRALGTDGDPSTALWELEQQLQIPHSLEELGVRETQLPAVIDEVLSNPYSNPTPVTEDGLRHLLGQALRGDRPTRR”, the protein production entry is “failed”.

For the sequence “MTGAVVVDIPLRWSDMDAQGHVNNVRISELVQESRNQAFYTNGAQEMLDTGIVVVSQDVEFLAPFVVDGSPLRVAVGCSQLGAARTVLDYRAWHHDVEVARARGTICPFDFATGRPRRLTDGERGAFESMKVESQQWKPIKVVDVSEAGDFIEVPIRWSDVDRQGHVNNVSLAGYLQEARILATTSWSPGMRRAGNYLWVVVRQDIRYRRQVLPTQRSCRVHTALTRLGTSSMTLAGSIATEEGSALDAATVLVCVDPKTGASVPIDDQTRQALSAYLVTV”, the protein production result is recorded as “failed”.

In the case of “MTGLINAIPATNKDEYKNVGVYIEHRGDELKRPSIEMIGIGKQLARKVNEKLICVVIGDKVDGIAKEVGEYGCDIVLAAESPELAEYRTMPYAEIIGGYIQEYKPNIFLLAATRNGRDLASRIAVKSRTGITADCTVLDIDENRTLLANRPTYGESTLAEILCRNHRPQMATARPGIFPPAEKEKDHKYEVIKKKVDVDKKLLGKQILKFIPRKSTDLTSAKIVVAGGLGLGGPDGFKMLEELANLIGGAVGSSRPPVDLGWITRDHQVGQTGQSVRPDLYIAVGISGKPQHIAGMKFSKVIVSINKDPNAEITKYSDYIITEDYRKVIPALIDAIKNSKKAQAPVQKA”, the protein production result is on record as “failed”.

Consider “MTGPAENSTNFPGHRLKSPLPLRLATLSLLILYPVAWFAPLMRAGLLPIFGLSEISVITGLQSLWASDVALALIVTAFALFAPYLKTIGTALIQWNLLDPRAQPALHILGKLAMADIFLIALYITLAKGISYATIEAAWGLYLFTACILASIALGLLTERQIRKATR”, for which the protein production entry is reported as “failed”.

“MTGQAAGPAAGPAAGQATKHAGGRRPGETRTREAILTAARVCFAERGFDATSLRRIAETAGVDQSLVHHFYGTKENLFLQALELPGKIEEAITAAAQGGLDGIGERVVRAHLSVWDDVSSRPALMTMVRSAAIHRAAAARLRETATGILARALGGVITGEDAMLRTSMVATQLVGLAMMRYVAHLEPLASADTDTVARHYGRAVQAIVTDRD”: the protein production entry is “not failed”.

On to “MTGRVCVLVMDSFGIGASLDAARYGDAGANTLVHIYEACKRGECDIEGVRKGPLMLPNLAGKGLYHAAMASSGLSFIDLATLAIPSGYYGYAVEQSLGKDTPSGHWEMAGVPVTFEWGYFPDKPYCFPEELISEFIKQCNLPGVLGEKHASGTIIIDELGEKHIRTGKPIVYTSADSVFQIAAHEEAFGLQRLYDICKIARNLVDKYQIGRVIARPFTGKPGSFKRTGNRKDYATPPPEKTLLDFLKEDGREVIAIGKIADIYAHQGVTQEIKADGNMALFDATLSAMKTAPQGSLVFTNFVDFDSSYGHRRDIAGYAHALEQFDARLPELDALLQPDDMVFIAADHGCDPTFPGSDHTREHIPVLVFGPQVNSKFIGRRDCFADIGQSIAEHLQLSSPLAHGVSFL”, for which the protein production result is listed as “failed”.

With “MTHTHRPAALEVHHPQPLAVHPTVAPLVTVQPGPTPAVQSIVLPDGRVVTGYTLTPAPALAPVDARPAVSRTAVNVALGGVGFAAVCGGLVLLTTFIAALTTFISQLITLAAVIFGGWIAVQILGGTRHTGRGGTTINIRKAVIKRSHFHG”, the protein production entry is given as “failed”.

As for “MTIAAAPPSSRFRAVRIWLTLVAALIAVMVLVGGATRLTESGLSIVEWKPVTGSLPPLTDTQWHAAFDGYKQIPQYRELNAGMTLDQFKTIFWWEWSHRLLGRVIGIVYLLPFLWFLWRGAIGPEWKRALWIIFALGALQGAVGWWMVASGLSQRTEVSQVRLATHLSLALIIYAAIVWTLRRMADGARVAAPVRLRVTALALLGLTFVQLYAGALVAGLRAGRLYNTWPEIDGALIPDAARLWFESPWWKNLFDNHLTVQFDHRMLAYALWTLAALHMIDALRTRAAARGAVQLFLALTAQATLGIFTVLYAAPIDLALVHQAMALVVLTLAVLQAERLTATRKDRTARDRGAAGRLAIPSEPFPSA”, the protein production entry was “failed”.

On to “MTIAFLVLVVALASGFAFLNGFRDVSNAVALSTRTRALTPSIAVLLAAIFNFVGAMLSGTFILAFTQSWITLPEGTSGLTMLASALTAAILWGVYAWWRGIPLSSTNSLIGGLIGAGAASVLVGGNAVGGMDNVLLTQVALPLVLSPVIAFVAAYLLVWPVTWAARYTQPNVVNRRFRRAQAISTAAVAFGHGLQDGQRTAAVMVLAMVAAGLSSGSDVPLWILLVTAIMLTAGTMFGGWRISHTLGHKLIRVDPLRGFVAQTLTSVMLFIGAIGFHLPLSTTHTLTAAVLGSGVNQRFHTVNRRLVRRVLLFWVATPLITAAAAFILELAFSPLADL”, for which the protein production entry is given as “failed”.

Take “MTIAHISDLHFGRIADSGVVEALLDEINAAGIDLVAVSGDLTQRARPAEYRAARNLLDALGPPTLVVAGNHDVYPWWRPLKRLRTPLERYRQFITEDLAPTFEAGGVAALGLTSAYGPSIKGGRIGPADRAAMRAFFSGTGDDRFKVLVVHHQLHPTAIGPISPHPVARQAQQTLAVAGEVGIDLILCGHLHISAIQPLEIIPGTPRIVVASAGTATSNRWREPTGPINFYNVVSVEPEAFSVEERRYVPDEGRFVRDGVTRFDHAG”: the protein production result is “failed”.

In the case of “MTIATSTKPQINWVNTLFFLGLHIGALFAFIPSNFSWAAVGVALLLYWITGGLGITLGFHRLVTHRSFQTPKWLEYFLVLCGTLACQGGPIEWVGTHRIHHLHSDTDPDPHDSNKGFWWSHIGWLIYHSPSHADVPRFTKDIAEDPVYQFLQKYFIFIQIALGLLLLYLGGWSFVVWGVFFRIVWVYHCTWLVNSATHKFGYRTYDAGDRSTNCWWVAVLVFGEGWHNNHHAFQYSARHGLEWWEVDLTWMTVQLLQILGLATNVKLADKKQ”, the protein production entry is recorded as “failed”.

In the case of “MTICCPVIALAFALNRKPVSAPTARIAVLARNTSMSFASLGLIDPLLRNLQDLNYQTPTPVQVKAIPAVLGGKDVMAGAQTGTGKTAGFALPLLQRLVQQGPAVSSNRARVLVLVPTRELAEQVLQSFVAYGKGLDLRFLAAYGGVSINPQMMKLRKGVDVLVATPGRLLDLNRQNAVQFDQVETLVLDEADRMLDLGFARELNAVFAALPVQRQTLLFSATFTDDIRTMAASILRSPVNISVSPPNVTGSKIKQWVVTVDKRNKPDLFMHLVAENNWDHALVFVKTRNGVEYLAAMLDEAGYAVDTIHGDKPQPARLRALERFKTGEVQMLVATDVAARGLDIDDLPLVINVDLPIVAQDYVHRIGRTGRAGASGVAVSLVCADEAPQLAAIEALIGQTLRREEEPGFEAEHRVPETSSTGQIIKKPKKPKKPKVPQGGAAATPVAGKKPQPQGGDGKRKGGGAAGKGASVLNGSPFSVQKPRGKGKPAGKAVAGARKPAGKPAGGRGKH”, the protein production result was “failed”.

For “MTIEKKKNKIIFTRTFSAPINKVFDAYTKRELFEQWFHPQDASVTVYDFNATKGGNAFYAIQAPQMTSYTIAEYLQVDAPYYIEYLDYFATSKGEKDTSMPGMHITLNFEEVKGKTTVTSTSTFPTESAAQQAIDMGVETGMNSTLNQLEKLLNQKLEHHHHHH”, the protein production result was “not failed”.

For the sequence “MTIEPTQSPSSEPEVHSGEDFVHIDDPRPTGDISLSDSIVNVEKDELLDEAAEEEFRGSDSVFSGGDGGGADDDGGECSSEATKVELPEELAKSVVILTCESTADGGSCDVYLVGTAHVSKVILVLRFHLVLSLQRSCLGIELIFW”, the protein production entry is reported as “failed”.
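Also: failed if final PepcDB status was selected cloned or expressed and not failed if soluble or beyond.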
